# Like-named read-outs stand apart in the source and are kept apart here.
# B1: N-terminal His10-tagged DMP12 (natural protein, N. meningitidis, UniProt Q9JXC6 1-118, looked up)
# chain: MNEHNLLIFCLKDNVSISEYTEMIDWAYKNIQSETVVEITENQIIEYQNRGLWRLVSEITDNWLFGPSEGDWLIDKESILAVKEKLQNSDFSTEPLVKNIIHVLEYAIKNEKTVIFHF
# B2: 8mer dsDNA (dsDNA)
# DNA 1: CTCGCGAG
# DNA 2: CTCGCGAG
# B3: C-terminal His6-tagged Neisseria HU protein (natural protein, UniProt P64389 1-89, looked up)
# chain: MNKSELIEAIAQEADISKAAAQKALDATTNAVTTALKQGDTVTLVGFGTFYVGERAERQGRNPKTGEPLTIAAAKTPKFRAGKALKDAL
# How the values were obtained:
# [1] = target: B3; test: SEC
# HU (C-His6) = target: T1, HU (C-His6) (Neisseria meningitidis, UniProt P64389 1-89); test: ITC
# T1 sequence: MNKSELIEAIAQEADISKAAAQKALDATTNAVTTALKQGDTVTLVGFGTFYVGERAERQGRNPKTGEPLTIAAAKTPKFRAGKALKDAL
# SEC = target: the molecule itself; test: SEC
# AUC = target: the molecule itself; test: AUC
# [2] = target: T2, DMP12 (Neisseria meningitidis conserved hypothetical protein NMB2123), tag-free (N. meningitidis, UniProt Q9JXC6 1-118); test: ITC
# T2 sequence (looked up): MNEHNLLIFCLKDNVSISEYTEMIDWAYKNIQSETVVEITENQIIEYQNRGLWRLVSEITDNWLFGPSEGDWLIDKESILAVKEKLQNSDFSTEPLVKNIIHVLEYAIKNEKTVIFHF
# [3] = target: T2, DMP12 (Neisseria meningitidis conserved …); test: ITC; remark: listed apart in the source
binder,measurement,setting,value
B1,stoichiometry N,[1],1 DMP12 monomer per HU dimer
B2,Kd,HU (C-His6),720 ± 60 nM
B3,stoichiometry N,SEC,2
same,stoichiometry N,AUC,2
same,Kd,[2],2820 ± 430 nM
same,dH,[2],-6.17 ± 0.55 kcal/mol
same,stoichiometry N,[2],0.96 ± 0.01
same,Kd,[3],2810 ± 430 nM

# Source: publication PMC3643605 (Nucleic Acids Research, 2013)
